Patent EP4389215A1 (Consejo Superior De Investigaciones Científicas, dated 2024)

Assays:
[1] = biological target: prion-like domain (PLD) of human TDP-43 (TDP-43 274-414), unmodified (human) (UniProt Q13148); assay: cell-based or functional assay
[2] = biological target: prion-like domain (PLD) of human TDP-43 (TDP-43 274-414), unmodified (human) (UniProt Q13148); assay: 15N CPMG relaxation dispersion, 200 µM PLD, region 321-343; self-assembly
[3] = biological target: the molecule itself; assay: cell-based or functional assay

Molecule: prion-like domain (PLD) of human TDP-43 (TDP-43 274-414), unmodified (from UniProt Q13148 274-414)
- t1/2 (h) of ThT aggregation, 10 µM PLD monomer, 0 % PLD seeds [1]: 4.87 h
- t1/2 (h) of ThT aggregation, 10 µM PLD monomer, 0.1 % PLD seeds [1]: 4.99 h
- t1/2 (h) of ThT aggregation, 10 µM PLD monomer, 0.5 % PLD seeds [1]: 2.88 h
- t1/2 (h) of ThT aggregation, 10 µM PLD monomer, 1 % PLD seeds [1]: 2.86 h
- kex (exchange rate, 15N CPMG) [2]: > 2000 s⁻¹

B1: MetO PLD (MetO-PLD polypeptide of the invention; SEQ ID NO: 2 with oxidized methionine residues) (other)
chain: GRFGGNPGGFGNQGGFGNSRGGGAGLGNNQGSNMGGGMNFGAFSINPAMMAAAQAALQSSWGMMGMLASQQNQSGPSGNNQNQGNMQREPNQAFGSGNNSYSGSNSGAAIGWGSASNAGSGSGFNGGFGSSMDSKSSGWGM
modifications: methionine sulfoxide at all Met residues (M307, M311, M322, M323, M336, M337, M339, M359, M405, M414, numbered on full human TDP-43, SEQ ID NO: 3); full MetO validated by mass spectrometry and NMR (M414 not detected by MS)
- t1/2 (h) of ThT aggregation, 10 µM MetO PLD monomer, 0 % MetO PLD seeds [3]: 54.9 h
- t1/2 (h) of ThT aggregation, 10 µM MetO PLD monomer, 0.1 % MetO PLD seeds [3]: 38.3 h
- t1/2 (h) of ThT aggregation, 10 µM MetO PLD monomer, 0.5 % MetO PLD seeds [3]: 18.7 h
- t1/2 (h) of ThT aggregation, 10 µM MetO PLD monomer, 1 % MetO PLD seeds [3]: 18 h
